Experimental data taken from paper PMC5951972.

Target: MBP-TSR4+5, recombinant thrombospondin repeats 4 and 5 of human properdin expressed in tandem, fused to maltose-binding protein (human)
Experiment: SEC

MBP-TSR4+5, recombinant thrombospondin repeats 4 and 5 of human properdin expressed in tandem, fused to maltose-binding protein (domain or fragment)
percent migrating as dimer: 40%
stoichiometry N: 2
